Positions count from the first letter of the chain named.

Common to all, as to test: cell-based or functional assay
Experiment [1] deals with endogenously produced TGF-beta (isoform not given).
In another experiment the target is mature human TGF-beta 1 (human, UniProt P01137 279-390).
For another experiment, the target named is T1, mature human TGF-beta 2 (human, UniProt P61812 303-414).
T1 sequence: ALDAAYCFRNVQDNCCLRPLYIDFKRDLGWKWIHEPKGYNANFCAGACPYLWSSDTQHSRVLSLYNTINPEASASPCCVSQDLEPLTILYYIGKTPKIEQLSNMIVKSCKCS

In a further experiment the target is T2, mature human TGF-beta 3 (human, UniProt P10600 301-412).
T2 sequence: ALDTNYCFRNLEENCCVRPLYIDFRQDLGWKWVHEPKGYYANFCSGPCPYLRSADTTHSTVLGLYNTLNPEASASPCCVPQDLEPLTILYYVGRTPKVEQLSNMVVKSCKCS

Chain of mature human TGF-beta 1 (P01137 279-390 limits assumed): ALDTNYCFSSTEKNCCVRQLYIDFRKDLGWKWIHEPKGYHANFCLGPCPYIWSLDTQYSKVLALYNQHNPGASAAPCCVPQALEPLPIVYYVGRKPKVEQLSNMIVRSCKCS

B1: 4856 rabbit Fab (Fab)
heavy: QSLEESGGRLVTPGTPLTLTCTASGFSLSSYDMSWVRQAPGKGLEWIGIIYGGSGSTWYASWAKGRFTMSKTSTTVDLKITSPTTEDMATYFCARGRDGGAGGSRNGYSLWGQGTLVTVSSGQPKAPSVFPLAPCCGDTPSSTVTLGCLVKGYLPEPVTVTWNSGTLTNGVRTFPSVRQSSGLYSLSSVVSVTSSSQPVTCNVAHPATNTKVDKTV
light: AYDMTQTPASVEVAVGGTVTIKCQASESIYSGLAWYQQTPGQRPKLLIYAASDLASGVPSRFKGSGSGTEYTLTISGVECADAATYYCQQTWTDGGIDNPFGGGTEVVVKRTPVAPTVLIFPPAADQVATGTVTIVCVANKYFPDVTVTWEVDGTTQTTGIENSKTPQNSADCTYNLSSTLTLTSTQYNSHKEYTCKVTQGTTSVVQSFNRGDC
In experiment [1], B1 gave a Geomean IC50, BxPC3-HEK-Blue TGF-beta reporter gene co-culture assay of 3.7 nM.

B2: antibody 4856 gL3gH13 Fab (humanised) (Fab)
heavy: EVQLVESGGGLVKPGGSLRLSCAASGFSLSSYDMSWVRQAPGKGLEWIGIIYGGSGSTWYASWAKGRFTISRDSAKNSVYLQMNSLRAEDTAVYYCARGRDAGAGGSRNGYSLWGQGTLVTVSSASTKGPSVFPLAPSSKSTSGGTAALGCLVKDYFPEPVTVSWNSGALTSGVHTFPAVLQSSGLYSLSSVVTVPSSSLGTQTYICNVNHKPSNTKVDKKVEPKSC
light: AYDMTQSPSTLSASVGDRVTITCQASESIYSGLAWYQQKPGKAPKLLIYAASDLASGVPSRFSGSGSGTEYTLTISSLQPDDFATYYCQQTWTDGGIDNPFGGGTKVEIKRTVAAPSVFIFPPSDEQLKSGTASVVCLLNNFYPREAKVQWKVDNALQSGNSQESVTEQDSKDSTYSLSSTLTLSKADYEKHKVYACEVTHQGLSSPVTKSFNRGEC
B2: in experiment [1], the IC50, Collagen I&III deposition, RPTEC and HRF co-culture, N = 1 was 22.4 nM; the IC50, Collagen I&III deposition, RPTEC and HRF co-culture, N = 2 was determined as 48 nM; the IC50, Collagen V deposition, RPTEC and HRF co-culture, N = 1 came to 38.9 nM; the IC50, Collagen V deposition, RPTEC and HRF co-culture, N = 2 was 81.6 nM. In experiment [1], this molecule showed an IC50, Fibronectin deposition, RPTEC and HRF co-culture, N = 1 of 32.6 nM; an IC50, Fibronectin deposition, RPTEC and HRF co-culture, N = 2 of 27.1 nM; an IC50 Geo Mean, Collagen I&III deposition, RPTEC and HRF co-culture of 32.8 nM; an IC50 Geo Mean, Collagen V deposition, RPTEC and HRF co-culture of 56.3 nM. Moreover, in experiment [1], the IC50 Geo Mean, Fibronectin deposition, RPTEC and HRF co-culture stood at 29.7 nM; the IC50 geometric mean, BxPC3 and HEK-Blue TGF-beta co-culture assay turned out to be 3.95 nM.

B3: antibody 4856 gL3gH20 Fab (humanised) (Fab)
heavy: B2 heavy with G49S, I70M, R72K
light: B2 light
The molecule B3 returned an IC50 geometric mean, BxPC3 and HEK-Blue TGF-beta co-culture assay in experiment [1] of 4.63 nM.

B4: antibody 4856 gL3gH29 Fab (humanised) (Fab)
heavy: B2 heavy with N109D
light: B2 light
With B4, the IC50 geometric mean, BxPC3 and HEK-Blue TGF-beta co-culture assay in experiment [1] was 3.77 nM.

B5: antibody 4856 gL3gH23 Fab (humanised) (Fab)
heavy: B2 heavy with G110A
light: B2 light
Regarding B5, in experiment [1], the IC50 geometric mean, BxPC3 and HEK-Blue TGF-beta co-culture assay stood at 9.1 nM.

B6: 4856 rabbit Fab (Fab, V domains shown)
VH: QSLEESGGRLVTPGTPLTLTCTASGFSLSSYDMSWVRQAPGKGLEWIGIIYGGSGSTWYASWAKGRFTMSKTSTTVDLKITSPTTEDMATYFCARGRDGGAGGSRNGYSLWGQGTLVTVSS
VL: AYDMTQTPASVEVAVGGTVTIKCQASESIYSGLAWYQQTPGQRPKLLIYAASDLASGVPSRFKGSGSGTEYTLTISGVECADAATYYCQQTWTDGGIDNPFGGGTEVVVKR
In the case of B6, the “Geomean IC50, HEK-Blue TGF-beta reporter gene assay” value with mature human TGF-beta 1 is 1.77 not clear (head says nM); with mature human TGF-beta 2, 0.3 not clear (head says nM); with mature human TGF-beta 3, 24.5 not clear (head says nM).

(Values after US20190330321A1 (UCB, published 2019).)
